Results as given in US20220185844A1, “PEPTIDE-DERIVED THERAPEUTICS TARGETING SET8 FOR THE TREATMENT OF CANCER” (NUVOBIO CORPORATION, priority 2019, published 2022).
“And” between values parts separate entries of the source, which are not always exact repeats. Equal values may be shown once. Where a SMILES comes first, the peptide text is derived from it. Where no end group is shown, it is not given here. [ ]: non-standard residue; d: D form. Nle = CCCC[C@H](N)C(=O)O; Ahx = NCCCCCC(=O)O

Columns and labels:
HCT 116 cells [1] = experiment: Chemosensitivity to doxorubicin (Resazurin reduction); format: cell-based; details: HCT 116 pre-treated with 2 uM for 24 hrs, dox 16 hrs, normalized to TAT-alone
Method: Inhibitor-induced sensitivity of HCT 116 cells to a chemotherapeutic agent, namely doxorubicin (dox), was measured using the Resazurin reduction assay. This assay allows to maintain cells viability and, therefore, to monitor cell growth with time. Exponentially growing HCT 116 cells were seeded into 96-well plates at the density of 2.0×10^4 cells/mL and incubated overnight. The media was replaced with fresh media prior to inhibitor treatment. Cells were pre-treated with 2 μM of inhibitor peptide for 24 hr. Peptide was diluted in the cell culture media (DMEM−/−) from 5 mM stock. All the treated cells were compared to the control (TAT peptide alone with equivalent quantity of DMSO) which were considered as 100% viable. One set of wells also prepared with medium only for background subtracting and instrument gain adjustment. Following 24 hr peptide treatment, dilutions of dox were added to cells (0, 0.001, 0.002, 0.01, 0.02, 0.1, 0.2, 1, 2 uM) and incubated for 16 hrs. The experiments were carried out in quadruplicate and expressed as mean+−SD. A 10% resazurin solution (0.15 mg/ml stock dissolved in PBS, filter sterilized and stored protected from light at 4° C.) was then added to each well and incubated for 2 hr. The fluorescence was recorded using a multiwell plate reader (Perkin Elmer) at Ex. 560 nm and Em. 610 nm.

HCT 116 cells [2] = experiment: Flow cytometry of BrdU incorporation (DNA replication); format: cell-based; details: HCT 116, 24 hr, 2 and 5 μM
[3] = test system: H4K20 mono-methylation in HCT 116 cells; experiment: Histone H4K20 mono-methylation western blot in treated cells; format: cell-based; details: HCT 116, 24 hr post dosing, 0-10 nM
Method: The topmost inhibitor, KBL9-TAT, from all the above experiments were tested for histone methylation status in HCT 116 cells. 3×10^6 cells were plated in 10 cm dish and incubated overnight. Cells were then treated with the inhibitors at various concentrations (0, 0.5, 1, 2, 5, 10 nM). Cells (5×10^6 cells/mL), 24 hr of post dosing, were collected in 15 mL falcon tube and centrifuged at 300×g for 10 min. The supernatant was discarded and the cells are washed with iced cold PBS. The cell pellet is flash-frozen in liquid nitrogen and stored at −80° C. Histone isolation is done using standard protocol. To summarize, cells were re-suspended in 1 mL hypotonic lysis buffer (10 mM Tris-HCl pH 8, 1 mM KCl, 1.5 mM MgCl2 and 1 mM DTT) containing protease inhibitor. The cells were transferred to 1.5 mL tube and incubated for 30 min on rotor at 4° C. to promote hypotonic swelling and lysis. The intact nuclei are collected by centrifugation at 10,000×g for 10 min in a cooled tabletop centrifuge. […]
For western blot, of total of […] of histones were separated on 15% SDS-PAGE and transferred overnight at 15V on PVDF membrane. […] Histone proteins were detected by Supersignal™ West Pico PLUS Chemiluminescent substrate (ThermoFisher Scientific) using the Chemidoc XRS+imaging system (BioRad).

HCT 116 cells [4] = experiment: Cell viability assay (Resazurin reduction); format: cell-based
Method: Cell viability was measured using the Resazurin reduction assay which indirectly quantifies living cells through the metabolically active reduction of resazurin to fluorescent resorufin. This assay allows to maintain cells viability and, therefore, to monitor cell growth with time. Exponentially growing HCT 116 cells were seeded into 96-well plates at the density of 2.0×10^4 cells/mL and incubated overnight. The media was replaced with fresh media prior to inhibitor treatment. Cells were treated with 10 μM of inhibitor peptide for 24 hr. All the inhibitors were diluted in the cell culture media (DMEM−/−) from 5 mM stock. All the treated cells were compared to the control (no treatment with equivalent quantity of DMSO) which were considered as 100% viable. One set of wells also prepared with medium only for background subtracting and instrument gain adjustment. The experiments were carried out in triplicate and expressed as mean+−SD. A 10% resazurin solution (0.15 mg/ml stock dissolved in PBS, filter sterilized and stored protected from light at 4° C.) was then added to each well and incubated for 2 hr. The fluorescence was recorded using a multiwell plate reader (Perkin Elmer) at Ex. 560 nm and Em. 610 nm.
Briefly cells were treated with different concentrations of inhibitor for 24 hr ranging from […]. The working dilutions of all the inhibitors were prepared in DMEM−/− media. […]

Set8 = target: T1, Set8 (Homo sapiens, UniProt Q9NQR1); experiment: In vitro lysine methyltransferase (KMT) activity inhibition assay (Methyltransferase-Glo); format: biochemical
T1 construct: made in house; host or cells: Escherichia coli BL21 (DE3) RP
T1 sequence (Q9NQR1 191-352 isoform Q9NQR1-2): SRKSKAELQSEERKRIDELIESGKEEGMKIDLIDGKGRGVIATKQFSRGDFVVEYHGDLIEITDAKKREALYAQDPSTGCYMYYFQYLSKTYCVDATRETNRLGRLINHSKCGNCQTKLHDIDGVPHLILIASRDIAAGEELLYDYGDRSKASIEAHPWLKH

[5] = target: T2, Recombinant Set8-His6x, pHIS2 Set8(191-352) (Homo sapiens (Human), UniProt Q9NQR1 191-352); experiment: DSF thermal shift, 125 µM peptide with 20 µM Set8, SYPRO Orange; DMSO control 71.5 ± 1.1
T2 construct: Purified from E. coli BL21 (DE3) RP; also called SET domain of Set8; SetD8; not shown: His6x tag from the pHIS2 vector
T2 sequence: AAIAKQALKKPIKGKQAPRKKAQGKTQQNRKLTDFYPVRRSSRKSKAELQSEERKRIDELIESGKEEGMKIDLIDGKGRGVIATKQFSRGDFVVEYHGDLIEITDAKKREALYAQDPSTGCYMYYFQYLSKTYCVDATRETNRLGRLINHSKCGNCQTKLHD

[6] = target: T2, Recombinant Set8-His6x, pHIS2 …; experiment: cell-based or functional assay
[7] = target: T2, Recombinant Set8-His6x, pHIS2 …; experiment: fluorescent polarization, fluorescein-labeled peptide with serially diluted recombinant Set8
Method: Recombinant Set8 protein was serially diluted in a 384-well plate, followed by the addition of fluorescein-labeled inhibitor peptide in PBS buffer. The mixtures were incubated in the dark for 30 min prior to fluorescent polarization measurements at room temperature on an EnVision Multilabel Plate Reader (PerkinElmer) with the excitation set at 480 nm and emission at 535 nm. Binding curves were generated by fitting the binding data to a hyperbolic nonlinear regression model using Prism 3.0 (GraphPad software, Inc., San Diego, Calif.), which also produced the corresponding dissociation constants (Kd).

C[C@@H](O)[C@H](N)C(=O)N[C@@H](Cc1c[nH]cn1)C(=O)N[C@@H](Cc1c[nH]cn1)C(=O)N[C@@H](Cc1c[nH]cn1)C(=O)N[C@@H](CCCCN)C(=O)N[C@@H](Cc1c[nH]cn1)C(=O)N1CCC[C@H]1C(=O)NCC(=O)NCC(=O)NCCCCCC(=O)NCC(=O)N[C@@H](CCCNC(=N)N)C(=O)N[C@@H](CCCCN)C(=O)N[C@@H](CCCCN)C(=O)N[C@@H](CCCNC(=N)N)C(=O)N[C@@H](CCCNC(=N)N)C(=O)N[C@@H](CCC(N)=O)C(=O)N[C@@H](CCCNC(=N)N)C(=O)N[C@@H](CCCNC(=N)N)C(=O)N[C@@H](CCCNC(=N)N)C(=O)N1CCC[C@H]1C(=O)N1CCC[C@H]1C(=O)N[C@@H](CCC(N)=O)C(=O)O [KBL9-TAT, THHHKHPGG{6-aminohexanoic acid}GRKKRRQRRRPPQ] (H-THHHKHPGG[Ahx]GRKKRRQRRRPPQ-OH; N-terminus and C-terminus assumed)
increase of sensitivity to doxorubicin treatment (HCT 116 cells [1]): 360%
BrdU incorporation (HCT 116 cells [2]): decreased BrdU incorporation in a dose-responsive manner
concentration after which H4K20 histone lysine methylation decreased [3]: at least 2 nM
IC50 (HCT 116 cells [4]; 24 hr dose response 1 nM to 20 nM, tested in HCT 116 and HEK 293 cells, read-out: IC50 for loss of cell viability): ~20 nM
loss of cell viability (HCT 116 cells [4]; HCT 116, 10 μM peptide, 24 hr, DMSO control = 100% viable): up to 80%

THHHKHPGG [KBL9]
inhibition of Set8 methyltransferase activity (H4K20 methylation) in dose-response (Set8; 50 nM Set8, 10 μM H4K20 peptide, 10 μM SAM): complete inhibition
in vitro specificity among panel of related methyltransferases (Set8; panel of recombinant Set6, Set7, Set8 enzymes): in vitro specificity towards the inhibition of Set8 activity

THHH[Nle]HPGG (also called EP 43) [KBL3]
Tm (° C.) [5]: 85.6 ° C.

SHHH[Nle]HPGT (also called EP 45) [KBL7]
Tm (° C.) [5]: 84.8 ° C.

THHH[Nle]HPGA (also called EP 47) [KBL5]
Tm (° C.) [5]: 85 ° C.

THHH[Nle]HPHQ (also called EP 33) [KBL1]
Tm (° C.) [5]: 86.5 ° C.

THHH[Nle]HPGE (also called EP 48) [KBL11]
Tm (° C.) [5]: 78.5 ° C.

SHHH[Nle]HPHG (also called EP 49) [KBL12]
Tm (° C.) [5]: 78.3 ° C.

THHH[Nle]HPEQ (also called EP 32) [KBL14]
Tm (° C.) [5]: 81.5 ° C.

THHHKHPGG (also called EP 18; EP18) [KBL9]
Tm (° C.) [5]: 83.5 ° C.

THHHKHPGG[Ahx]GRKKRRQRRRPPQ [KBL9-TAT]
IC50, loss of cell viability (resazurin, 24 hr; HCT 116 and HEK 293 cells) [6]: ~20 nM

THHHKHPGG (also: fluorescein label, position not given here, also called EP18) [fluorescein-labeled KBL9]
Kd [7]: 33.5 nM and 33.3 nM

THHHKHPEQ (also called EP 7) [KBL13]
Tm (° C.) [5]: 77.6 ° C.

THHHKHPHQ (also called EP 8) [KBL15]
Tm (° C.) [5]: 75.5 ° C.

THHHKHPGQ (also called EP 19) [KBL8]
Tm (° C.) [5]: 84.5 ° C.

THHHKHPGR (also called EP 21) [KBL4]
Tm (° C.) [5]: 85 ° C.

SHHHKHPHG (also called EP 24) [KBL10]
Tm (° C.) [5]: 82.8 ° C.

THHHKHPHK (also called EP 6) [KBL2]
Tm (° C.) [5]: 85.8 ° C.

THHHKHPGA (also called EP 22) [KBL6]
Tm (° C.) [5]: 84.8 ° C.
